Read-outs that look alike come from different tables or passages of the source.
How the values were obtained:
[1] = biological target: PRRSV viral lysate (Porcine Reproductive and Respiratory Syndrome Virus); assay: ELISA, plate coated with 25.00 ng PRRSV viral lysate, 1 µg antibody
[2] = biological target: PRRSV viral lysate (Porcine Reproductive and Respiratory Syndrome Virus); assay: ELISA, plate coated with 12.50 ng PRRSV viral lysate, 1 µg antibody
[3] = biological target: porcine coronavirus lysate; assay: ELISA Test 2, plate coated with viral lysate, antibody diluted 1:4000
[4] = biological target: PRRSV viral lysate (Porcine Reproductive and Respiratory Syndrome Virus); assay: as above
[5] = biological target: porcine pseudorabies virus lysate; assay: ELISA Test 1, plate coated with viral lysate, antibody diluted 1:4000, Group 2
[6] = biological target: porcine coronavirus lysate; assay: as above
[7] = biological target: PRRSV viral lysate (Porcine Reproductive and Respiratory Syndrome Virus); assay: as above
[8] = biological target: PRRSV viral lysate (Porcine Reproductive and Respiratory Syndrome Virus); assay: ELISA, plate coated with 6.25 ng PRRSV viral lysate, 1 µg antibody
[9] = biological target: PRRSV viral lysate (Porcine Reproductive and Respiratory Syndrome Virus); assay: ELISA, plate coated with 3.13 ng PRRSV viral lysate, 1 µg antibody
[10] = biological target: porcine pseudorabies virus lysate; assay: ELISA Test 1, plate coated with viral lysate, antibody diluted 1:4000, Group 1
[11] = biological target: porcine coronavirus lysate; assay: as above
[12] = biological target: PRRSV viral lysate (Porcine Reproductive and Respiratory Syndrome Virus); assay: as above
[13] = biological target: PRRSV viral lysate (Porcine Reproductive and Respiratory Syndrome Virus); assay: ELISA, plate coated with 0.78 ng PRRSV viral lysate, 1 µg antibody
[14] = biological target: PRRSV viral lysate (Porcine Reproductive and Respiratory Syndrome Virus); assay: ELISA, plate coated with 50.00 ng PRRSV viral lysate, 1 µg antibody
[15] = biological target: PRRSV viral lysate (Porcine Reproductive and Respiratory Syndrome Virus); assay: ELISA, plate coated with 1.56 ng PRRSV viral lysate, 1 µg antibody
[16] = biological target: PRRSV viral lysate (Porcine Reproductive and Respiratory Syndrome Virus)

B1: anti-PRRSV antibody 142 (antibody, V domains shown)
VH: EVQRVESGPGLVKPSQSLSLTCTVTGYSITNDYAWNWIRQFPGNKLEWMGYISYSGSTSYNPYLKSRISITRDTSKNQFFLQLNSVPTEDTATYYCARSTYGNYGYYYAMDCWGQGTSVTVSS
VL: DIVLTQSPASLAVSLGQRATISCRASESIEYYGTSLMQWYQQKPGQPPKLLIYAASNVESGVPARFSGSGSGTDFSLNIHPVEEDDIAMYFCQQSRKVPTFGGGTKLEIKR
OD450 [1]: 1.3 OD450
OD450 [2]: 1.11 OD450
OD450 [3]: 0.136 OD450
OD450 [4]: 0.411 OD450
OD450 [5]: 0.08 OD450
OD450 [6]: 0.133 OD450
OD450 [7]: 0.344 OD450
OD450 [8]: 1.16 OD450
OD450 [9]: 0.959 OD450
OD450 [10]: 0.082 OD450
OD450 [11]: 0.148 OD450
OD450 [12]: 0.385 OD450
OD450 [13]: 0.984 OD450
OD450 [14]: 1.36 OD450
OD450 [15]: 1.05 OD450
OD450 [16]: 1.58 OD450
